These results are taken from paper PMC4048220, “Exploring the Electron Transfer Pathway in the Oxidation of Avermectin by CYP107Z13 in Streptomyces ahygroscopicus ZB01” (PLoS ONE, 2014).

Substrate in series [1]: NC(=O)C1=CN([C@@H]2O[C@H](COP(=O)(O)OP(=O)(O)OC[C@H]3O[C@@H](n4cnc5c(N)ncnc54)[C@H](O)[C@@H]3O)[C@@H](O)[C@H]2O)C=CC1
The series can be described thus: spectrophotometric DCPIP reduction. The class given is biochemical, Streptomyces ahygroscopicus. The settings on record: DCPIP as electron acceptor.

Substrate in series [2]: NC(=O)C1=CN([C@@H]2O[C@H](COP(=O)(O)OP(=O)(O)OC[C@H]3O[C@@H](n4cnc5c(N)ncnc54)[C@H](O)[C@@H]3O)[C@@H](O)[C@H]2O)C=CC1
The series can be described thus: spectrophotometric DCPIP reduction. It is filed as biochemical, Streptomyces hygroscopicus. The settings on record: DCPIP as electron acceptor.

B1: FdR28 (Streptomyces ahygroscopicus; V1M) (protein)
chain: MVVGASLAGLRAAEALRGEGFTGSLTMIGDELGEPYDRPPLSKQVLTGWVPADNTKLPRRRDVDAEWLLGVPASGLDLANNHVRLADGRQVPFDRVPISTGVRARPWFVESEAALDGVFVVRTREHAEALQRALAAGPSRVLVIGAGFTGSEIASVCRERDIPVTVAELAPAPLVGALGAMIGDVAADVQRAHGVDLRCGVKVTQLEGDAQGRLRRAHFDDGTTVDADVAVVALGGIRNTDWLRDSGLAAGVWGIACDTGCRALDLNGLVTDDVFVAGDVARCPNPIYEYRLISLEHWANAVEQAEVAAHNMVSGQADRWPHLTLPLFWSIQFGINIKSVGVPTFADEVVVTQGSVPDHRFVAAYGYRGRVTAAVSFNNAKWLDHHRRLIETAAPFPPLCPTPDQPADTKPVPVDFPGPALLAQGATVVVTGHDPSERRVTAAYQHR
notes: FAD flavoprotein; pRSET-b (vector His tag), E. coli BL21(DE3), Ni-Sepharose purified; GTG start changed to ATG; cloning primers encode N-terminal MVVGAS, C-terminal TAAYQHR
Turning to B1, in series [1], the Km stood at 25.4 µM and the kcat was determined as 6.43 s⁻¹.

B2: FdR18 (Streptomyces hygroscopicus) (protein)
chain: MVDAHQTFVIVGGGLAGAKAAETLRAEGFTGRVILICDERDHPYERPPLSKGYLLGKEERDSVFVHEPAFYAQARIELHLGQPAVHLDPAARTVRLGDGTLIAYDKLLLATGAEPRRLDVPGTGLAGVHHLRRLAHAERLRGVLASLGRENGHLVIAGAGWIGLEVAAAARSYGAEVTIIEPEPTPLHGILGPELGALFTDLHAEHGVRFHFGARLTEIVGQDGMVVSVRTDDGEEHPAHDVLAAIGAAPRTALAEQAGLDVVDRADGGGIAVDAALRTSDPFIHAAGDVAAADHPLLDTRLRVEHWANALNGGPAAARAMLGQDISYDRVPYFFSDQYDLGMEYSGYAPPGSYDQVVCRGDVGKREFIAFWLREGRVLAGMNVNVWDVAGDVQQLIRSGTPLDPEKLTDPTVPLTSLLP
notes: FAD flavoprotein; pRSET-b (vector His tag), E. coli BL21(DE3), Ni-Sepharose purified; GTG start changed to ATG; cloning primers encode N-terminal MVDAHQT, C-terminal LTSLLP
As for B2, in series [2], the Michaelis-Menten constant (Km) is listed as 64 µM and the kcat worked out at 2.02 s⁻¹.

Usually Km stands for the substrate concentration at which the rate is half of its maximum. The kcat is the number of substrate molecules converted per active site and unit of time at saturation.
